The supplement of paper PMC10567573

B1: VAMP4 (parent)
chain: IMALVAAILLLVIIILIVMKYRT
B2: ANKRD17 (parent)
chain: EMVRFLLEAGADQEHKTDEMHTAL

Variants of: B1
Assay: protein stability index of a GFP-peptide fusion (GPS, HEK-293T) (PSI 1-6); higher = more stable
Settings: c terminus: native
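Further: lentivirally expressed fusions sorted by FACS into six bins by GFP to DsRed ratio, PSI derived from sequencing read proportions per bin multiplied by bin number.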

Protein stability index, by site and new letter:
A3: G 3.17 | L 3.65 | V 3.59 | R 3.58 | F 3.55 | W 3.47 | Q 3.28 | K 3.28 | Y 3.55 | C 3.34 | M 3.72 | I 3.5 | E 2.2 | T 3.17 | H 2.85 | N 2.46 | D 1.33 | P 2.9 | S 2.86
A7: G 3.51 | K 3.15 | D 2.37 | Q 1.91 | L 3.58 | F 3.74 | H 1.84 | P 2.75 | N 2.02 | E 1.62 | I 3.42 | C 3.29 | M 3.09
M2: S 3.18 | N 1.93 | K 2.98 | Q 2.96 | E 2.4 | V 2.72 | L 3.03 | Y 3.22 | F 3.53 | I 3.15 | G 2.98 | W 3.66 | P 3.28 | R 3.53 | C 3.25 | H 2.4 | D 2.98 | A 2.73 | T 2.81
A6: P 2.54 | F 3.75 | Q 2.37 | K 2.68 | C 3.2 | V 3.23 | Y 2.06 | N 2.1 | S 3.71 | D 2.8 | L 3.39 | T 3.43 | W 2.02 | E 2.3 | R 2.47 | H 2.06 | I 3.61 | M 3.34 | G 3.2
L4: D 2.9 | T 3.19 | Y 2.76 | R 3.42 | V 3.14 | C 3.07 | S 3.29 | P 2.83 | H 2.36 | F 3.69 | Q 2.19 | I 3.33 | M 3.29 | N 1.79 | W 3.59 | E 1.57 | A 3.08 | K 2.78 | G 3.32
V5: L 3.23 | C 3.37 | Y 3.72 | N 1.84 | S 2.96 | T 3.31 | P 2.36 | E 2.42 | F 3.17 | I 2.97 | K 2.1 | A 3.36 | G 3.37 | R 2.73 | Q 1.83 | W 3.4 | M 3.81 | D 2.77 | H 2.13
I1: L 3.49 | S 3.02 | G 3.11 | Y 3.52 | V 3.38 | C 3.16 | D 2.5 | H 3.39 | T 3.53 | E 2.77 | W 3.51 | M 3.56 | K 3.29 | A 3.25 | Q 3.45 | N 2.69 | F 3.39 | R 3.06 | P 3.56

Variants of: B2
Assay: as above
Settings: c terminus: a fixed tail appended

Protein stability index, by site and new letter:
M20: S 3.45 | E 2.94 | G 3.12 | N 3.59 | P 3.21 | I 2.36 | K 2.94 | L 3.13 | V 2.84 | A 3.04 | Q 3 | Y 2.45 | T 3.15 | F 2.75 | W 2.82 | C 2.48 | R 3.5 | H 2.79 | D 3.56
E19: R 2.7 | Y 1.6 | I 1.63 | T 2.53 | N 3.27 | C 1.54 | P 1.87 | V 1.79 | K 1.91 | F 1.97 | A 2.33 | W 1.43 | G 1.71 | D 2.28 | Q 1.92 | H 2.22 | L 2.29 | S 2.16 | M 2.01
T17: C 2.5 | H 2.55 | A 2.45 | N 2.21 | L 2.22 | M 2.71 | K 3.12 | F 2.15 | E 2.99 | R 2.68 | Q 2.54 | S 2.76 | W 2.19 | P 3.17 | Y 2.33 | V 2.37 | I 2.16 | D 3.12 | G 2.94
H21: P 2.54 | M 3.25 | F 2.19 | D 2.96 | W 1.92 | Y 2.41 | G 3.1 | L 2.66 | I 2.55 | C 3.21 | R 3.36 | K 3.11 | S 3.4 | Q 3.55 | E 2.89 | V 2.34 | T 2.81 | A 3.24 | N 3.05
D18: I 2.64 | W 2.44 | N 2.51 | L 1.7 | K 2.47 | H 2.01 | F 1.34 | Q 2.67 | Y 1.44 | P 2.35 | S 2.73 | V 1.6 | T 2.42 | A 2.31 | E 3.16 | C 2.01 | R 2.1 | G 2.26 | M 2.1
E14: P 1.9 | N 1.95 | S 2.15 | M 2.72 | D 2.61 | W 1.67 | H 2.01 | I 1.28 | G 2.63 | V 1.82 | L 1.79 | T 2.04 | K 2.76 | F 1.9 | R 1.95 | Y 1.44 | Q 2.46
T22: W 1.91 | E 3.42 | Q 2.78 | Y 1.93 | A 2.77 | L 3.45 | K 2.51 | C 2.2 | N 2.86 | I 1.93 | S 2.98 | H 2.39 | P 2.86 | F 1.97 | V 2.46 | M 2.15 | G 3.23 | D 2.75 | R 2.5
A23: H 2.69 | S 3.05 | R 2.96 | T 2.74 | L 2.43 | M 2.7 | Q 3.69 | P 3.12 | K 2.76 | D 3.06 | E 2.91 | N 3.01 | W 3.12 | F 2.18 | Y 3.03 | G 2.72 | C 2.49 | V 2.6 | I 2.97
K16: H 2.87 | R 2.51 | G 2.56 | A 3.16 | M 3.06 | I 2.72 | T 3.44 | D 3.54 | N 3.29 | Y 2.22 | P 2.45 | E 2.68 | W 1.88 | C 2.56 | L 3.11 | V 3.18 | S 2.91 | F 3 | Q 2.53
L24: G 3 | R 2.72 | A 2.75 | P 2.4 | H 2.78 | N 3.03 | K 3.3 | D 4.06 | S 2.99 | W 2.68 | V 2.62 | F 2.34 | Y 2.95 | T 3.05 | M 2.37 | I 2.31 | C 2.75 | Q 3.14 | E 3.79
H15: M 2.42 | G 2.73 | Y 1.97 | A 2.76 | C 3.16 | R 2.44 | Q 3 | I 2.56 | F 1.94 | D 3.33 | K 2.92 | S 2.79 | L 2.71 | W 1.72 | P 2.33 | T 3.02 | E 3.04 | V 2.69 | N 3.21
